Test results reported in patent US20180311371A1 (Hoffmann-La Roche, published 2018).

Legend:
[1] = biological target: T1, minipig TPBG, full length, cell surface expressed on CHO-K1 cells (minipig); assay: cell-based or functional assay
T1 chain: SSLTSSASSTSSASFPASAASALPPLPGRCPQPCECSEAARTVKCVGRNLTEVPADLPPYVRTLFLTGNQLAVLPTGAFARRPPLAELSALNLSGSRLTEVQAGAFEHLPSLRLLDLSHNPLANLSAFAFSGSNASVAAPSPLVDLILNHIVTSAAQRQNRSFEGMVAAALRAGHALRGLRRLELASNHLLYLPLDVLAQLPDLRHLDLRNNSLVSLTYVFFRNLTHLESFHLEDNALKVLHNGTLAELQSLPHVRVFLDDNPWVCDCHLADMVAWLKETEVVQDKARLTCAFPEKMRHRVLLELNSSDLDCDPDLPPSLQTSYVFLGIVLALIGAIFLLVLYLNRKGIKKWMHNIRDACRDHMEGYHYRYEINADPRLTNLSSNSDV

[2] = biological target: T2, human TPBG (trophoblast glycoprotein), full length, cell surface expressed (human, UniProt Q13641 32-420); assay: cell-based or functional assay
T2 sequence: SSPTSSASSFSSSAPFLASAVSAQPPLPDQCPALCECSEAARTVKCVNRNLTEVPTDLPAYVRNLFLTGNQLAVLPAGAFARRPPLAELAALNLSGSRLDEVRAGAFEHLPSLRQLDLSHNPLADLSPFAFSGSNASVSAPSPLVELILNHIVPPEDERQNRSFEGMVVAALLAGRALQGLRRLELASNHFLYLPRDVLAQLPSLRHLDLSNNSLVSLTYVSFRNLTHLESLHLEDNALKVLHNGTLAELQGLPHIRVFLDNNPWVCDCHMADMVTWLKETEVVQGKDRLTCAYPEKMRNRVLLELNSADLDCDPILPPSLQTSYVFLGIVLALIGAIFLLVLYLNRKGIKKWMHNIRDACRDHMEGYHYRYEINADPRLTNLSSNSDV

[3] = biological target: T2, human TPBG (trophoblast glycoprotein), …; assay: cell-based or functional assay; remark: listed apart in the source
[4] = biological target: T1, minipig TPBG, full length, cell surface …; assay: cell-based or functional assay
[5] = biological target: T2, human TPBG (trophoblast glycoprotein), …; assay: cell-based or functional assay; remark: listed apart in the source
[6] = biological target: T2, human TPBG (trophoblast glycoprotein), …; assay: cell-based or functional assay; remark: listed apart in the source
[7] = biological target: T2, human TPBG (trophoblast glycoprotein), …; assay: cell-based or functional assay; remark: listed apart in the source
[8] = biological target: T3, huTPBG (recombinant human TPBG immobilised on the Biacore chip) (human, UniProt Q13641 32-355, limits assumed); assay: SPR Biacore T200; huTPBG amine-coupled, Fab injected
T3 construct: also called human TPBG antigen
T3 sequence: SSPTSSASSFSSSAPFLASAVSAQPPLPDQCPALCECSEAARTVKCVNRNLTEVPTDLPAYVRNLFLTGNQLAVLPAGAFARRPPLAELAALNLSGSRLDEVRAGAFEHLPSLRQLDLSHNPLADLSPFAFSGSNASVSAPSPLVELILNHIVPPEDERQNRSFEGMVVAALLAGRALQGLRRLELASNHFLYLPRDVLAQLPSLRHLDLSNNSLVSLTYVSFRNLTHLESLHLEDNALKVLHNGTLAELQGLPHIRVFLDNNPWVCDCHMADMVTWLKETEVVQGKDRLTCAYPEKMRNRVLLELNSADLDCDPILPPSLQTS

[9] = biological target: T2, human TPBG (trophoblast glycoprotein), …; assay: flow cytometry on SW620 clone 4 cells; ratio of MFI; replicate 1
[10] = biological target: T2, human TPBG (trophoblast glycoprotein), …; assay: flow cytometry on SW620 clone 4 cells; ratio of MFI; replicate 2
[11] = biological target: T4, recombinant extracellular domain of minipig TPBG (Biacore analyte) (minipig); assay: SPR (Biacore T200): Fab captured on anti-huFab antibody, minipig TPBG injected for 120 s at 4.9-400 nM, dissociation 660 s
T4 chain: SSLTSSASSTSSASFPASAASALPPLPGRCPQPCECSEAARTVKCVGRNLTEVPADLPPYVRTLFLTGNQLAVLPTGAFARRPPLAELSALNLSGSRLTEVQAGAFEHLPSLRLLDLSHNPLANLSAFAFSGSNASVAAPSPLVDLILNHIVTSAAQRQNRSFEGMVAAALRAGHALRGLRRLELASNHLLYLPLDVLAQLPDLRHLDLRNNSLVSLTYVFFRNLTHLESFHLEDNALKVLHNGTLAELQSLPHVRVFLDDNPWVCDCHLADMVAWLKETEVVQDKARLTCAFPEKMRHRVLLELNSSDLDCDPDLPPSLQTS

[12] = biological target: T1, minipig TPBG, full length, cell surface …; assay: flow cytometry on CHO cells stably expressing minipig TPBG; Fab dilution series 0.01-20 µg/ml, PE-labelled anti-kappa secondary antibody
[13] = biological target: T5, murine TPBG extracellular domain, huIgG1-Fc-His6 (murine); assay: ELISA; Fc-TPBG coated; (-) = no binding
T5 construct: also called Fc-TPBG (mo)

[14] = biological target: T6, minipig TPBG extracellular domain, huIgG1-Fc-His (minipig); assay: ELISA; Fc-TPBG coated; mAb titrated from 1 µg/ml
T6 construct: also called Fc-TPBG (mp)

[15] = biological target: T7, human TPBG extracellular domain, huIgG1-Fc-His6 (human); assay: ELISA; Fc-TPBG coated; mAb titrated from 1 µg/ml
T7 construct: also called Fc-TPBG (hu)

[16] = biological target: T8, rat TPBG extracellular domain, huIgG1-Fc-His6 (rat); assay: ELISA; Fc-TPBG coated; mAb titrated from 1 µg/ml
T8 construct: also called Fc-TPBG (rt)

[17] = biological target: T9, cynomolgus TPBG extracellular domain, huIgG1-Fc-His6 (cynomolgus); assay: ELISA; Fc-TPBG coated; (-) = no binding
T9 construct: also called Fc-TPBG (cy)

[18] = biological target: T8, rat TPBG extracellular domain, …; assay: ELISA; Fc-TPBG coated; (-) = no binding

T5 sequence (chain, as listed by the source limits assumed): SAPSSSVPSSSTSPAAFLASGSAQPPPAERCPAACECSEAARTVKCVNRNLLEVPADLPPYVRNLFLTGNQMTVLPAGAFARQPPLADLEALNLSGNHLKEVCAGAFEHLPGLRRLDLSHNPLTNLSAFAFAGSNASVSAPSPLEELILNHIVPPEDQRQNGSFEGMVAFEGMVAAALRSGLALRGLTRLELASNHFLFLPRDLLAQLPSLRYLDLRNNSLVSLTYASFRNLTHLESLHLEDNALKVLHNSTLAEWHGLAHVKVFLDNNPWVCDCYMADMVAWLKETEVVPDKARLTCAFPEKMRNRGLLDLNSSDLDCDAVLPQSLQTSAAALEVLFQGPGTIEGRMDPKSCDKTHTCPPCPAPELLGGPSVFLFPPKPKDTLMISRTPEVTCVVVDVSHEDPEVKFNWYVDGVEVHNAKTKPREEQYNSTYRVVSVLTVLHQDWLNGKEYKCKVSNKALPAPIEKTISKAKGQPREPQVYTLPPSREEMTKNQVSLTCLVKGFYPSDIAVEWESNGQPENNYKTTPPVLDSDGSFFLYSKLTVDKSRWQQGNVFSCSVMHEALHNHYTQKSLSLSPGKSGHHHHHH
T8 sequence (chain, as listed by the source limits assumed): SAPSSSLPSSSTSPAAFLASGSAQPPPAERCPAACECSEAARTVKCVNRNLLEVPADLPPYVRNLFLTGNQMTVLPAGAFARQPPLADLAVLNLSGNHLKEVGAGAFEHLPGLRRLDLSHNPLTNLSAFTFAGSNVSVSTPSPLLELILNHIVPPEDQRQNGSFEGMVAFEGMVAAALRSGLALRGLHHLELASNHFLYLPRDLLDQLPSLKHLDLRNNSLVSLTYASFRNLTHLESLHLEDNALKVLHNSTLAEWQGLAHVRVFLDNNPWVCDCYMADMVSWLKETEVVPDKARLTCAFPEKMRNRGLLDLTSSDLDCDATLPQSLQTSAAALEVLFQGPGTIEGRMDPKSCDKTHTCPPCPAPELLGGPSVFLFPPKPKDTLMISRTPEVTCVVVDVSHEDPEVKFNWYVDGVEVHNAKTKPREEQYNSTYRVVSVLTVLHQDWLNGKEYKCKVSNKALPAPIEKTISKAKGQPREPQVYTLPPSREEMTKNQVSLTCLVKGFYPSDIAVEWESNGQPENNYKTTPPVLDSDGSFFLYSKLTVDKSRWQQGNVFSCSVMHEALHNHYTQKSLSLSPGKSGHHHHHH
T9 sequence (chain, as listed by the source limits assumed): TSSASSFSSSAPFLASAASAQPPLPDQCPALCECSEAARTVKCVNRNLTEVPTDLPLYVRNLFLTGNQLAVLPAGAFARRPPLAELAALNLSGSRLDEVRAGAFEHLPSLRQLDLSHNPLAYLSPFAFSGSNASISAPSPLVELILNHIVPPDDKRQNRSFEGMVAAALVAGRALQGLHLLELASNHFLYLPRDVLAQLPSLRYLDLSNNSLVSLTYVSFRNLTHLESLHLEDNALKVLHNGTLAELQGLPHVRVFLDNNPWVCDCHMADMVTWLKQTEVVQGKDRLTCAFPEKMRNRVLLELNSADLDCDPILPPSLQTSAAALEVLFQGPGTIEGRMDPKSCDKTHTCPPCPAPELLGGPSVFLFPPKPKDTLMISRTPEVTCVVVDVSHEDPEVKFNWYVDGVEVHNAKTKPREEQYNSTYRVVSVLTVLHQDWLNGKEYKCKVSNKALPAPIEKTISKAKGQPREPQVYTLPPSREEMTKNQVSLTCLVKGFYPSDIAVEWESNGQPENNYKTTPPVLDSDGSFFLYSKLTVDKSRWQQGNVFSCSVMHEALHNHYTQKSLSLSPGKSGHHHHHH

B1: prior art anti-TPBG antibody H8, Fab fragment (Fab, V domains shown)
VH: EVQLQQSGPDLVKPGASVKISCKASGYSFTGYYMHWVKQSHGKSLEWIGRINPNNGVTLYNQKFKDKAILTVDKSSTTAYMELRSLTSEDSAVYYCARSTMITNYVMDYWGQVTSVTVSS
VL: SIVMTQTPTFLLVSAGDRVTITCKASQSVSNDVAWYQQKPGQSPTLLISYTSSRYAGVPDRFIGSGYGTDFTFTISTLQAEDLAVYFCQQDYNSPPTFGGGTKLEIKR
notes: also called Fab(H8); Fab1
fold lower potency on minipig TPBG cells than on human TPBG cells, sandwich construct [1]: ~100 fold | internalization after 1.0 h, MCF7 cells [2]: 61% | internalization after 2.0 h, MCF7 cells [2]: 79% | EC50 cytotoxicity, Fab + anti-kappa-Fab-PE, CHO-K1/human TPBG, replicate 1 [3]: 0.41 nM | EC50 cytotoxicity, Fab + anti-kappa-Fab-PE, CHO-K1/human TPBG, replicate 2 [3]: 0.52 nM | EC50 cytotoxicity, Fab + anti-kappa-Fab-PE, CHO-K1/minipig TPBG, replicate 1 [4]: 48 nM | EC50 cytotoxicity, Fab + anti-kappa-Fab-PE, CHO-K1/minipig TPBG, replicate 2 [4]: 45.9 nM | EC50 cytotoxicity, Fab-PE sandwich construct, MCF7 [5]: 1.25 nM | EC50 cytotoxicity, Fab-PE sandwich construct, MCF7 (comparison with A1-A3) [6]: 1.85 nM | EC50 cytotoxicity, Fab-PE sandwich construct, H1975, replicate 1 [7]: 0.698 nM | EC50 cytotoxicity, Fab-PE sandwich construct, H1975, replicate 2 [7]: 0.451 nM | EC50 cytotoxicity, Fab-PE sandwich construct, H1975, replicate 3 [7]: 0.656 nM | Kd [8]: 0.00158 nM | koff [8]: 2.17e-07 s⁻¹ | kon [8]: 137000 M⁻¹ s⁻¹ | Fold change pH 7.2 vs pH 5.5 [9]: 4.2 fold | Fold change pH 7.2 vs pH 5.5 [10]: 6.8 fold | binding result [11]: no binding | binding result [12]: no binding (tested: 20 µg/ml)

B2: anti-TPBG antibody 091 (mAb) (antibody, V domains shown)
VH: EVHLLESGGGLVHPGGSLRLSCAASGFTFRSDAMHWVRQAPGKGLEWVSGVSGSGGSPYYADSVKGRFTISRDDSKTTLYLQMNSLRAEDTAVYYCATGGSIAGSYYYYPMDVWGQGTTVTVSS
VL: DIQMTQSPSSLSASVGDRVTITCQASQDISNYLNWYQQKPGKAPKLLIYAASTLQIGVPSRFSGSGSGTDFTFTISSLQPEDFATYYCQQANSFPLTFGGGTKVEIK
binding result [13]: no binding (tested: titrated from 1 µg/ml) | binding result [14]: binds | binding result [15]: binds | binding result [16]: binds

B3: anti-TPBG antibody 097 (mAb) (antibody, V domains shown)
VH: EVQLLESGGGLAQPGGSLRLSCAASGFTFNNDAMTWVRQAPGKGLEWVSAISGSGGSTYYADSVKGRFTISRDNSKNTLYLQMNSLRAEDTAVYYCAKGGSWGDWYYYFYPMDVWGQGTTVTVSS
VL: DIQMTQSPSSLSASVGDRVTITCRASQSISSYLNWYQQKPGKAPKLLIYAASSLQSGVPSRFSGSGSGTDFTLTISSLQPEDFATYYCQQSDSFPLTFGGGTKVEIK
binding result [13]: no binding (tested: titrated from 1 µg/ml) | binding result [17]: no binding (tested: titrated from 1 µg/ml) | binding result [18]: no binding (tested: titrated from 1 µg/ml) | binding result [14]: binds | binding result [15]: binds
